Measurements published in patent US20200199216A1 (KINDRED BIOSCIENCES, published 2020).

T1: canine IL17A (as used at 1 nM in the H1080 cell assay) (canine)
T1 chain: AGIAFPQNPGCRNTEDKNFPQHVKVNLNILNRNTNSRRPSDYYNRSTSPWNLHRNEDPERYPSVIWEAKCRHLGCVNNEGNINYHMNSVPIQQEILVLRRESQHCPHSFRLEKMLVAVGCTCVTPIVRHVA

T2: canine IL17F-polyHis (canine, biotinylated in the biosensor assay)
T2 construct: also called IL17F homodimer; not shown: poly-His tag on the C-terminal
T2 chain: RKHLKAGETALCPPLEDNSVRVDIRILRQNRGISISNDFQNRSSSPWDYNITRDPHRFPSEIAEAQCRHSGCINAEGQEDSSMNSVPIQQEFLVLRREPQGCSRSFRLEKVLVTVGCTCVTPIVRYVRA

T3: canine IL17A-polyHis (canine, biotinylated (EZ-Link NHS-LC-biotin) in the biosensor assays)
T3 construct: also called biotinylated canine IL17A-polyHis; not shown: poly-His tag on the C-terminal
T3 chain: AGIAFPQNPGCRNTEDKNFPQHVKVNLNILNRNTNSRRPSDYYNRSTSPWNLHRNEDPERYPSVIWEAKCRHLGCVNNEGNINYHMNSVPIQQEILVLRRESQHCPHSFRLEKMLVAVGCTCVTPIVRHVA

T4: canine IL4 (biotinylated) (canine, UniProt O77762 25-132, biotinylated)
T4 construct: Used only to capture the IL4R/IL13R-Fc fusions on streptavidin sensor tips; also called Biotinylated canine IL4
T4 sequence (looked up): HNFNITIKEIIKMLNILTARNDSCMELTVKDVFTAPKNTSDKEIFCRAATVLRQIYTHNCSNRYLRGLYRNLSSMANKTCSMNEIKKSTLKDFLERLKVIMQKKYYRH


Experiments:
[1] = target: T1, canine IL17A (as used at 1 nM in the …); experiment: cell-based or functional assay
[2] = target: T2, canine IL17F-polyHis; experiment: Western blot: SDS-PAGE, PVDF, goat anti-mouse IgG-HRP
Protocol: Canine IL17A-hFc, feline IL17A-polyHis, equine IL17A-polyHis, and canine IL17F-polyHis (0.6 μg) were each separated by SDS-PAGE and the proteins transferred to PVDF membranes. The blots were probed using Clone A, C, D, or E antibody followed by goat anti-mouse IgG-HRP. In this Western analysis, Clone A, C, and E antibodies immunoreacted to canine and equine IL17A, but not to feline IL17A or canine IL17F. Clone D antibody immunoreacted to canine, feline, and equine IL17A, but not to canine IL17F.

[3] = target: T1, canine IL17A (as used at 1 nM in the …); experiment: cell-based or functional assay
[4] = target: T3, canine IL17A-polyHis; experiment: BLI (Octet); biotinylated canine IL17A-polyHis on streptavidin sensors, antibody 0-220 nM, 1:1 model
Protocol: The binding analysis was performed using a Biosensor Octet as follows. Briefly, canine IL17A-polyHis, which was expressed and purified from CHO-S cells, was biotinylated using EZ-Link NHS-LC-biotin (Catalog No. 21336, Thermo Scientific). Free, unreacted biotin was removed from biotinylated IL17A by dialysis. Biotinylated canine IL17A was captured on streptavidin sensor tips (Catalog No. 18-509, ForteBio). The association of different concentrations (0 nM, 18.33 nM, 45.87 nM, 110 nM, 220 nM) of hybridoma Clone C or caninized Clone C antibody to canine IL17A was monitored for 90 seconds. Dissociation was monitored for 600 seconds. A buffer only blank curve was subtracted to correct for any drift. The data were fit to a 1:1 binding model using ForteBio™ data analysis software to determine the kₒₙ, koff, and the Kd. The buffer for dilutions and all binding steps was: 20 mM phosphate, 150 mM NaCl, pH 7.2.

[5] = target: T2, canine IL17F-polyHis; experiment: BLI (Octet); biotinylated canine IL17F-polyHis on streptavidin sensors, antibody 0-124 nM, 1:1 model
Protocol: The binding analysis was performed using a biosensor Octet as follows. Briefly, canine IL17F-polyHis was biotinylated using EZ-Link NHS-LC-biotin (Catalog No. 21336, Thermo Scientific). Free, unreacted biotin was removed from biotinylated IL17F-polyHis by dialysis. Biotinylated canine IL17F was captured on streptavidin sensor tips (Catalog No. 18-509, ForteBio). The association of different concentrations (0 nM, 2 nM, 10.1 nM, 21.3 nM, 43.3 nM, 86.7 nM, 124 nM) of the caninized Clone C antibody and canine IL17F-polyHis was monitored for ninety seconds. Dissociation was monitored for 600 seconds. A buffer only blank curve was subtracted to correct for any drift. The data were fit to a 1:1 binding model using ForteBio™ data analysis software to determine the kₒₙ, koff, and the Kd. The buffer for dilutions and all binding steps was: 20 mM phosphate, 150 mM NaCl, pH 7.2.

[6] = target: T5, human C1q (Catalog No. 204876-1MG; Sigma Aldrich) (human, UniProt P02745 23-245; P02746 28-253; P02747 29-245); experiment: BLI; Fc fusion (25 µg/mL) captured on IL4-bound streptavidin sensors, human C1q at 250 µg/mL
T5 construct: Bought protein
Protocol: (§1) The determine the binding affinity of C1q to canine IgG-B Fc variant 1, a biosensor binding analysis was performed. In this assay, the affinity of C1q to a fusion protein of a canine IL4 receptor ECD and IL13 receptor ECD (IL4R/IL13R) and canine IgG-B Fc wild-type (IL4R/IL13R-canine IgG-B, SEQ ID NO: 95) or to canine IgG-B Fc variant 1 (IL4R/IL13R-canine IgG-B variant 1, SEQ ID NO: 96) was tested. Briefly, canine IL4 was biotinylated. Biotinylated canine IL4 was captured on streptavidin sensor tips. Either IL4R/IL13R-canine IgG-B wild-type (25 ug/mL) or IL4R/IL13R-canine IgG-B variant 1 (25 μg/mL) were complexed to the IL4-bound biosensors. Subsequently, the complex was used to bind human C1q at 250 μg/mL (Catalog No. 204876-1MG; Sigma Aldrich). Then, the ability of human C1q to bind to either complex was measured. Reduced binding between human C1q and IL4R/IL13R-canine IgG-B variant 1 was observed when compared to IL4R/IL13R-canine IgG-B wild-type.

[7] = target: T4, canine IL4 (biotinylated); experiment: BLI capture step; biotinylated canine IL4 on streptavidin sensor tips, fusion at 25 µg/mL
Protocol: as §1

T5 sequence (P02745 23-245 limits assumed, chain 1 of 3): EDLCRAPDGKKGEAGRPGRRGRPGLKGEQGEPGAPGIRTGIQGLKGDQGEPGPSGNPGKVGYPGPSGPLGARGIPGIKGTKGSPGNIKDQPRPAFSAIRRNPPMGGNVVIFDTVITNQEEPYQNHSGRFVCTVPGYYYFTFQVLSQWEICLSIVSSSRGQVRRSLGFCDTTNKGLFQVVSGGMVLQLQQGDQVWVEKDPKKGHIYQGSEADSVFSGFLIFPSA
T5 sequence (P02746 28-253 limits assumed, chain 2 of 3): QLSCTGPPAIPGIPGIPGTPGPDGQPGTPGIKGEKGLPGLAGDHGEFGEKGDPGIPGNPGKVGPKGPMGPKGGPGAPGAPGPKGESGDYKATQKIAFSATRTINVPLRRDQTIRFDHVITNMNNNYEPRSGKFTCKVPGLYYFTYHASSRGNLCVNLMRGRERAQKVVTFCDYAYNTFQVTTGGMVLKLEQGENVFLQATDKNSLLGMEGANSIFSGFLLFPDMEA
T5 sequence (P02747 29-245 limits assumed, chain 3 of 3): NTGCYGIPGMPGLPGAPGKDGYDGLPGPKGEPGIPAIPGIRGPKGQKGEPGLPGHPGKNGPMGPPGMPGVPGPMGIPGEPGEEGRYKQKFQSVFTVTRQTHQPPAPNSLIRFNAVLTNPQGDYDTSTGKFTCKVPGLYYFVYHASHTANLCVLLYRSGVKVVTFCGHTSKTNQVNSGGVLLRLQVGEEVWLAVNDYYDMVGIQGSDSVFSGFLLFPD

Row | EC50 (ng/mL), H1080 Cell Functional Assay (IL6 secretion) [1] [ng/mL] | binding result [6] | binding result [7] | Binder | binding result [2] | other results
1 | 13 |  |  | mouse monoclonal antibody Clone A (antibody, IgG1, V domains shown, Hybridoma antibody; also called antibody A) VH: QVQLKESGPGLVAPSQSLSITCTISGFSLTSNGVHWVRQSPGKDLEWLVVIWSDGTTTYNSDFKSRLSISKDNSKSQVFLKMNSLQTDDTAMYYCARHYDWGYYYAMDYWGQGTSVTVSS VL: DVVMTQTPLSLPVSLGDQASISCRSSQSLVHSNGNTYLHWYLQRPGQSPNLLIYKVSNRFSGVPDRFSGSGSGTDFTLKISRVEAEDLGVYFCSQSTHVPFTFGSGTKLEIK | no binding (tested: 0.6 µg of target per lane) | 
2 | 40 |  |  | mouse monoclonal antibody Clone E (antibody, mouse IgG1, V domains shown, Hybridoma antibody; also called antibody E) VH: QVQLKESGPGLVAPSQSLSITCTISGFSLTSNGVHWVRQPPGKGLEWLVVIWSDGTTTYNSALKSRLSISKDNSKSQVFLKMNSLQTDDTAMYYCARHYDRGYYYAMDYWGQGTSVTVSS VL: DVVMTQTPLSLPVSLGDQASISCRSSQSLVHSNGNTYFHWYLQKPGQSPKLLIYKVSNRFSGVPDRFSGSGSGTDFTLKISRVEAEDLGVYFCSQSTHAPFTFGSGTKLEIK | no binding (tested: 0.6 µg of target per lane) | 
3 |  |  |  | caninized Clone C antibody (caninized Clone C VH with canine IgG-B, caninized Clone C VL with canine kappa constant region) (antibody, V domains shown, expressed in CHO-S cells, purified on Protein A) VH: EVQLVESGGGLVKPGGSLRLSCAASGFTFSSYGMSWVRQAPGKRLELVAIINSNGGSTYYPDSVKGRFTFSLDTSKNTLYLQMNSLRAEDTAMYYCVRCHYDYERVFDYWGQGTLVTVSS VL: DIQMTQSPASVSGSLGDKVSITCKANDHINNWLAWYQQLPGNAPRLLISGSTSLESGVPDRFSGSKSGSSFTLTISGLQPEDFATYYCQQYWSTPFTFGSGTKVEIKR |  | IC50, H1080 cell-based canine IL17A neutralization assay (IL6 secretion) [3]: 0.41 nM; Kd [4]: 1.4 nM; Kd [5]: 4.1 nM
4 |  | binds | binds | IL4R/IL13R-canine IgG-B wild-type (Fc fusion) TETQPPVTNLSVSVENLCTVIWTWDPPEGASPNCTLRYFSHFDNKQDKKIAPETHRSKEVPLNERICLQVGSQCSTNESDNPSILVEKCTPPPEGDPESAVTELQCVWHNLSYMKCTWLPGRNTSPDTNYTLYYWHSSLGKILQCEDIYREGQHIGCSFALTNLKDSSFEQHSVQIVVKDNAGKIRPSFNIVPLTSHVKPDPPHIKRLFFQNGNLYVQWKNPQNFYSRCLSYQVEVNNSQTETNDIFYVEEAKCQNSEFEGNLEGTICFMVPGVLPDTLNTVRIRVRTNKLCYEDDKLWSNWSQAMSIGENTDPTGGGSGSGSVKVLHEPSCFSDYISTSVCQWKMDHPTNCSAELRLSYQLDFMGSENHTCVPENREDSVCVCSMPIDDAVEADVYQLDLWAGQQLLWSGSFQPSKHVKPRTPGNLTVHPNISHTWLLMWTNPYPTENHLHSELTYMVNVSNDNDPEDFKVYNVTYMGPTLRLAASTLKSGASYSARVRAWAQTYNSTWSDWSPSTTWLNYYEPKRENGRVPRPPDCPKCPAPEMLGGPSVFIFPPKPKDTLLIARTPEVTCVVVDLDPEDPEVQISWFVDGKQMQTAKTQPREEQFNGTYRVVSVLPIGHQDWLKGKQFTCKVNNKALPSPIERTISKARGQAHQPSVYVLPPSREELSKNTVSLTCLIKDFFPPDIDVEWQSNGQQEPESKYRTTPPQLDEDGSYFLYSKLSVDKSRWQRGDTFICAVMHEALHNHYTQESLSHSPGK |  | 
5 |  | binds | binds | IL4R/IL13R-canine IgG-B variant 1 (C1q binding mutant) (Fc fusion) TETQPPVTNLSVSVENLCTVIWTWDPPEGASPNCTLRYFSHFDNKQDKKIAPETHRSKEVPLNERICLQVGSQCSTNESDNPSILVEKCTPPPEGDPESAVTELQCVWHNLSYMKCTWLPGRNTSPDTNYTLYYWHSSLGKILQCEDIYREGQHIGCSFALTNLKDSSFEQHSVQIVVKDNAGKIRPSFNIVPLTSHVKPDPPHIKRLFFQNGNLYVQWKNPQNFYSRCLSYQVEVNNSQTETNDIFYVEEAKCQNSEFEGNLEGTICFMVPGVLPDTLNTVRIRVRTNKLCYEDDKLWSNWSQAMSIGENTDPTGGGSGSGSVKVLHEPSCFSDYISTSVCQWKMDHPTNCSAELRLSYQLDFMGSENHTCVPENREDSVCVCSMPIDDAVEADVYQLDLWAGQQLLWSGSFQPSKHVKPRTPGNLTVHPNISHTWLLMWTNPYPTENHLHSELTYMVNVSNDNDPEDFKVYNVTYMGPTLRLAASTLKSGASYSARVRAWAQTYNSTWSDWSPSTTWLNYYEPKRENGRVPRPPDCPKCPAPEMLGGPSVFIFPPKPKDTLLIARTPEVTCVVVDLDPEDPEVQISWFVDGKQMQTAKTQPREEQFNGTYRVVSVLPIGHQDWLKGKQFTCRVNNKALPSPIERTISKARGQAHQPSVYVLPPSREELSKNTVSLTCLIKDFFPPDIDVEWQSNGQQEPESKYRTTPPQLDEDGSYFLYSKLSVDKSRWQRGDTFICAVMHEALHNHYTQESLSHSPGK |  | 
